In patent US20210340232A1, “MONOCLONAL ANTIBODIES AGAINST HUMAN DICKKOPF3 AND USES THEREOF” (Board of Regents, The University of Texas System, priority 2018, published 2021):
Entries after “also recorded” stand apart in the source; their conditions may differ.

Tests used:
[1] = system: KPC/DKK3-/- model of PDAC; assay: Survival of KPC/DKK3-/- mice (P48-Cre; Kras LSL-G12D;Trp53fl/fl; dkk3-/-); assay type: in vivo, mouse
Description: HPSCs and BxPC3 cells were treated with DKK3 mAb clones JM6-6-1 and JM8-12-1 or isotype control mAb or PBS. (FIGS. 5A-B) HPSC apoptosis and migration as measured by FACS and Transwell migration assay at 48 hours. (FIG. 5C) BxPC3 migration in response to rhDKK3 10 μg/ml as measured by Transwell migration assay at 48 hours. (FIG. 5D) BxPC3 resistance to gemcitabine 100 μM as measured by MTS proliferation assay at 6 days. HPSC-CM, pancreatic stellate cell conditioned media, 10 μg/ml. The orthotopic co-injection BxPC3+ HPSC model of PDAC was used to test the efficacy of DKK3 mAb clones JM6-6-1 or JM8-12-1 (5 mg/kg i.p. once every 5 days). (FIG. 5E) Overall tumor progression was measured every 3-4 days by IVIS imaging. […]
FIGS. 6A-F. DKK3 blockade is associated with increased tumor immune infiltrates and improves response to checkpoint inhibitor therapy. (FIG. 6A) T cells were stimulated, treated with DKK3 (5-10 μg/mL) and proliferation was measured by CFSE assay. In a syngeneic orthotopic model with luciferase-labeled KPC cells, tumors were examined for CD3 and CD8 expression by IHC (FIG. 6B) and additional markers of T cell activity were measured by quantitative PCR (FIG. 6C). Mice in this model were treated with either control IgG, DKK3 mAb JM6-6-1, αCTLA4 or the combination JM6-6-1+αCTLA4 and tumor growth was measured by IVIS imaging to 25 and 190 days (FIG. 6D). […]

[2] = system: 4T1 TNBC cells; assay: 4T1 orthotopic mouse model of TNBC; assay type: in vivo
Description: (FIG. 13A) DKK3 expression was measured by RT-PCR in TNBC fibroblasts (BCF), human pancreatic stellate cells (HPSC) from pancreatic adenocarcinoma (PDAC), BxPC (PDAC cancer cell) and water control. (FIG. 13B) DKK3 protein was measured by Western blotting in BCF from TNBC, in ER-positive breast cancer cells, and in TNBC cancer cell lines. (FIG. 13C) DKK3 protein was measured in patient-derived xenograft (PDX) tumors from TNBC relative to recombinant human DKK3 (rhDKK3) and conditioned medium from HPSC (HPSC-CM). Actin was used as loading control. […] Data is pooled from TCGA, EGA and GEO.
FIGS. 14A-C. Treatment of TNBC orthotopic model with DKK3 mAb. […] Tumor growth was measured by calipers at day 33 after starting treatment and compared to initial tumor size prior to treatment. (FIG. 14B) 4T1 primary tumors and metastases were imaged using IVIS at day 33 after starting treatment. (FIG. 14C) Luciferase signal from 4T1 metastases was measured by IVIS at day 33 after starting treatment.
Treatment of TNBC orthotopic models with DKK3 mAb was also tested. An orthotopic model using 4T1 TNBC cells labeled with firefly luciferase was treated with PBS, a control antibody, or JM6-6-1. […] The mice were also imaged to detect the primary tumors and any metastases (FIG. 14B).

B1: JM6-6-1: monoclonal antibody against human DKK3; heavy chain variable SEQ ID NO: 19, light chain variable SEQ ID NO: 20 (antibody, V domains shown)
VH: EVKLVESGGGLVKPGGSLKLSCAASGFTFTIEYMAWIRQTPEKRLEWVASISSGGDDIYYADNVKGRFTISRDNAKNTLYLQMSSLKSEDTAIYYCSRSLSDWGQGTTLTVSSAKTTPPSDYPLA
VL: MTQTPLSLPVSLGDQASISCRSSQSILHSNGHTYLEWYLQKPGQSPKLLIYKVSNRFSGVPDRFSGSGSGTDFTLKISRVEAEDLGVYYCFQGSHVPFTFGSGTKLEIERADAAQ
- effect on survival compared to PBS or control mAb [1]: no effect on survival
- median survival [1]: 58 days
- luciferase signal from 4T1 metastases ([2]; 5 mg/kg ip q5 days, IVIS day 33): prevented metastases
- tumor size at day 33 after starting treatment compared to controls ([2]; 5 mg/kg ip q5 days, calipers): significantly smaller
- survival relative to control antibody and PBS ([2]; 4T1 mouse model of TNBC): improved survival; also recorded: increased survival
